Numbering of substitutions follows the chain as printed. In names and notes the source's numbering stands. Read-outs that look alike come from different tables or passages of the source. One block for each molecule: values may come before it.
Assays:
IKK1 (1–676) (human) = IKK1 (1–676) (human) (UniProt O15111); test: SEC
[1] = biological target: purified human IKK1 used for single-particle cryo-EM (human) (UniProt O15111); test: cryo-EM structure
[2] = biological target: purified human IKK1 used for single-particle cryo-EM (human) (UniProt O15111); test: cryo-EM structure; remark: listed apart in the source
[3] = biological target: T1, HA-IKK1 WT overexpressed in 293T cells (human), O15111; test: SEC; conditions: remark: other sources report otherwise
T1 chain: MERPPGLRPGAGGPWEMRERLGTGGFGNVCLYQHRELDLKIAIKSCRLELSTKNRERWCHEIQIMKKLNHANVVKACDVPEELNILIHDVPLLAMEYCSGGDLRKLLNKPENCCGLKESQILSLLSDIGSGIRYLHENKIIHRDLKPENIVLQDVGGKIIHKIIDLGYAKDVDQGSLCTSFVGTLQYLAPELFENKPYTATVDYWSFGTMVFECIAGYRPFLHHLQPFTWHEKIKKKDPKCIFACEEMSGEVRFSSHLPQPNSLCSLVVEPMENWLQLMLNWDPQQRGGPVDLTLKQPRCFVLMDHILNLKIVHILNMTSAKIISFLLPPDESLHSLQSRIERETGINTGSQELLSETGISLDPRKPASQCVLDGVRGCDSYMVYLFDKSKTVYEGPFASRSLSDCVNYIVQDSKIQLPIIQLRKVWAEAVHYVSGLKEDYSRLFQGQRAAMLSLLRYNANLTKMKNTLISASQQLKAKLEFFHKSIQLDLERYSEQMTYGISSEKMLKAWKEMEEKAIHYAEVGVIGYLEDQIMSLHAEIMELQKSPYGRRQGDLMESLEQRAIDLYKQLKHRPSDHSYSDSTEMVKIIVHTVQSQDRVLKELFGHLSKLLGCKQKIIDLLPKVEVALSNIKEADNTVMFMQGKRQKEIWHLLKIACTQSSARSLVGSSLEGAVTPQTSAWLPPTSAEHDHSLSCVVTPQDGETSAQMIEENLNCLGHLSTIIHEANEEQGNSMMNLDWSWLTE

SEC [4] = biological target: the molecule itself; test: SEC
SEC [5] = biological target: the molecule itself; test: SEC; remark: listed apart in the source
[6] = biological target: T2, human IKK1 (residues 10–667; EE) (human), O15111; test: crystal structure; conditions: remark: other sources report otherwise
T2 chain: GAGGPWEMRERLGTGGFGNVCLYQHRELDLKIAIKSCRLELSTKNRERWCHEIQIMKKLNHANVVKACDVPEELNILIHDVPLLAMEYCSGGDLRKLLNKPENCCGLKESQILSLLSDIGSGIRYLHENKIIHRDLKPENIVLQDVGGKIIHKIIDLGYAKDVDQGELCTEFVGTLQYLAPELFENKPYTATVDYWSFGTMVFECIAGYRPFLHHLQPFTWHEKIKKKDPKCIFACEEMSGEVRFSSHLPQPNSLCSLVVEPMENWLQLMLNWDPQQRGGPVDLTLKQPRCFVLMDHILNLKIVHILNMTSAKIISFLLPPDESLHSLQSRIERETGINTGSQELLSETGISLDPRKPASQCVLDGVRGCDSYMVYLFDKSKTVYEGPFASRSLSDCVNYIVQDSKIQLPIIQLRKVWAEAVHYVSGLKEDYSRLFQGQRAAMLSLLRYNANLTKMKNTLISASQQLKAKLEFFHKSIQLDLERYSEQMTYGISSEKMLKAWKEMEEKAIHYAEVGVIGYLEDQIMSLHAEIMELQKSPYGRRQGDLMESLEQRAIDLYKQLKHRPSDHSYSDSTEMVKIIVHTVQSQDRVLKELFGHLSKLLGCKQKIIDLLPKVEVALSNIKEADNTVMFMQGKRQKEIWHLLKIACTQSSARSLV

[7] = biological target: T2, human IKK1 (residues 10–667; EE) …; test: crystal structure; conditions: remark: other sources report otherwise

- stoichiometry N (IKK1 (1–676) (human)): 2
Molecule: IKK1 (1–676) (from UniProt O15111 1-676) (domain or fragment)

- stoichiometry N [1]: 2
- percent of particles not conforming to dimers (hexamer) [2]: 2%
- stoichiometry N [2]: 6
Molecule: purified human IKK1 used for single-particle cryo-EM (from UniProt O15111 10-660) (enzyme)

- stoichiometry N [3]: 2
B1: HA-IKK1 WT overexpressed in 293T cells, O15111 1-745 (enzyme)
chain: T1 chain

B2: HA-IKK1 HY (H578A Y580A) overexpressed in 293T cells (enzyme, human, UniProt O15111 1-745, looked up)
chain: T1 chain with H578A, Y580A
- stoichiometry N (SEC [4]): 2

B3: IKK2 (1–700) (domain or fragment, UniProt O14920 1-700, looked up)
chain: MSWSPSLTTQTCGAWEMKERLGTGGFGNVIRWHNQETGEQIAIKQCRQELSPRNRERWCLEIQIMRRLTHPNVVAARDVPEGMQNLAPNDLPLLAMEYCQGGDLRKYLNQFENCCGLREGAILTLLSDIASALRYLHENRIIHRDLKPENIVLQQGEQRLIHKIIDLGYAKELDQGSLCTSFVGTLQYLAPELLEQQKYTVTVDYWSFGTLAFECITGFRPFLPNWQPVQWHSKVRQKSEVDIVVSEDLNGTVKFSSSLPYPNNLNSVLAERLEKWLQLMLMWHPRQRGTDPTYGPNGCFKALDDILNLKLVHILNMVTGTIHTYPVTEDESLQSLKARIQQDTGIPEEDQELLQEAGLALIPDKPATQCISDGKLNEGHTLDMDLVFLFDNSKITYETQISPRPQPESVSCILQEPKRNLAFFQLRKVWGQVWHSIQTLKEDCNRLQQGQRAAMMNLLRNNSCLSKMKNSMASMSQQLKAKLDFFKTSIQIDLEKYSEQTEFGITSDKLLLAWREMEQAVELCGRENEVKLLVERMMALQTDIVDLQRSPMGRKQGGTLDDLEEQARELYRRLREKPRDQRTEGDSQEMVRLLLQAIQSFEKKVRVIYTQLSKTVVCKQKALELLPKVEEVVSLMNEDEKTVVRLQEKRQKELWNLLKIACSKVRGPVSGSPDSMNASRLSQPGQLMSQPSTASNSLPE
- stoichiometry N (SEC [5]): 2

- stoichiometry N [6]: 6
- stoichiometry N [7]: 2
B4: human IKK1 (residues 10–667; EE), O15111 10-667 (domain or fragment)
chain: T2 chain
